Laboratory results: paper doi:10.1101/2024.07.10.602847

Biological target: AeCRK^G359E-mCherry (Aeschynomene evenia)
Assay: co-IP

fold enrichment compared to the negative control MtLYK3-CFP [fold] | Substance
7.37 | AeCRK^G359E-mCherry (receptor)
2.9 | AeRLCK2-YFP (natural protein)
